From publication PMC3511393, “Identification and Characterisation of the RalA-ERp57 Interaction: Evidence for GDI Activity of ERp57” (PLoS ONE, 2012) come the findings set out here.

For this assay, the target named is T1, 6xHis-ERp57 (human, UniProt P30101 24-505).
T1 construct: ERp57, human cDNA without the region encoding the N-terminal signal peptide (amino acids 1-23); also called wt ERp57; wild-type 6xHis-ERp57; source: E. coli, purified (Ni-NTA); not shown: 6xHis, N-terminal, kept
T1 sequence (looked up): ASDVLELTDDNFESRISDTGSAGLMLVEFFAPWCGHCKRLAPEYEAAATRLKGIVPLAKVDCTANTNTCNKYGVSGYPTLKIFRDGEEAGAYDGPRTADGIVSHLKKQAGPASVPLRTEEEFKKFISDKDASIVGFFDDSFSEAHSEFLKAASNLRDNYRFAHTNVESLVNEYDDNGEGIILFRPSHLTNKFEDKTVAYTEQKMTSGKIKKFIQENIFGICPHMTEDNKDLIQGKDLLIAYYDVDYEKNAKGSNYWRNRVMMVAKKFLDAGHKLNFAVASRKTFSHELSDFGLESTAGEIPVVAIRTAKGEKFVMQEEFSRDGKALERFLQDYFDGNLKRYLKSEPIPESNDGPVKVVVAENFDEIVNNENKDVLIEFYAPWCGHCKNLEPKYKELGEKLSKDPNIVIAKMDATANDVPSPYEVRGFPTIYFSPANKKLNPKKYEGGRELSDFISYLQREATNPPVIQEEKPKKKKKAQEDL
Nature of the assay: pull-down; GST-RalA loaded with GDP as bait; purified 6xHis-ERp57 or mutants; Western blot with anti-6xHis antibody; with or without 1 mM DTT. To be noted: both partners purified.

B1: GST-RalA (natural protein, simian, UniProt P63320 1-206, looked up)
chain: MAANKPKGQNSLALHKVIMVGSGGVGKSALTLQFMYDEFVEDYEPTKADSYRKKVVLDGEEVQIDILDTAGQEDYAAIRDNYFRSGEGFLCVFSITEMESFAATADFREQILRVKEDENVPFLLVGNKSDLEDKRQVSVEEAKNRADQWNVNYVETSAKTRANVDKVFFDLMREIRARKMEDSKEKNGKKKRKSLAKRIRERCCIL
notes: RalA, simian cDNA (pGEX-2T-RalA from Yoshito Kaziro); loaded with GDP or GTP immediately before use; Nucleotide state (GDP or GTP) is told by the assay; also called RalA-GDP; RalA-GTP; source: when necessary eluted with reduced GSH and dialysed; not shown: GST, N-terminal, kept
For B1, the binding result is listed as “binds”.
